Measurements taken from PMC10104851, “SynDLP is a dynamin-like protein of Synechocystis sp. PCC 6803 with eukaryotic features” (Nature Communications, 2023).

What was measured:
[1] = target: SynDLP_(HPRN-AAAA) (Synechocystis sp. PCC 6803); experiment: SEC; analytical SEC, Superose 6 Increase 3.2/300 in reaction buffer (20 mM HEPES pH 7.4, 150 mM NaCl, 7.5 mM KCl, 5 mM MgCl2, 0.2 mM DTT); 30 µl of 10 µM protein; 7 °C; no nucleotide, no membrane
[2] = target: SynDLP_(HPRN-AAAA) (Synechocystis sp. PCC 6803)
SynDLP = target: T1, SynDLP (Synechocystis sp. PCC 6803, UniProt P73765, K61A); experiment: continuous regenerative coupled GTPase assay; type: biochemical; details: P-loop mutant
T1 construct: gene slr0869; full length, C-terminal His tag (pET303-CT/His), E. coli Rosetta-gami 2 (DE3), calculated 93 kDa; oligomer of ~40-50 monomers in solution; model covers aa 1-793, last 19 residues unresolved

[3] = target: SynDLP, the dynamin-like protein of Synechocystis sp. PCC 6803 (Synechocystis sp. PCC 6803); experiment: cryo-EM structure; about 3.0 mg/mL SynDLP in 5 mM MgCl2, 7.5 mM KCl, 20 mM HEPES pH 7.4 (no NaCl), no nucleotide, no membrane; segmented single-particle analysis, C2 symmetry; model of 8 monomers
[4] = target: SynDLP, the dynamin-like protein of Synechocystis sp. PCC 6803 (Synechocystis sp. PCC 6803)
[5] = substrate: Nc1nc2c(ncn2[C@@H]2O[C@H](COP(=O)(O)OP(=O)(O)OP(=O)(O)O)[C@@H](O)[C@H]2O)c(=O)[nH]1; experiment: continuous regenerative coupled GTPase assay (PK/LDH, NADH); type: biochemical, Synechocystis sp. PCC 6803; details: 0.5 µM protein, 20 mM HEPES pH 7.4, 150 mM NaCl, 7.5 mM KCl, 5 mM MgCl2, 0.2 mM DTT, 30 °C, no liposomes
Text: continuous regenerative coupled GTPase assay (PK/LDH, NADH) on […]

T1 sequence (P73765 entry or part of it K61A): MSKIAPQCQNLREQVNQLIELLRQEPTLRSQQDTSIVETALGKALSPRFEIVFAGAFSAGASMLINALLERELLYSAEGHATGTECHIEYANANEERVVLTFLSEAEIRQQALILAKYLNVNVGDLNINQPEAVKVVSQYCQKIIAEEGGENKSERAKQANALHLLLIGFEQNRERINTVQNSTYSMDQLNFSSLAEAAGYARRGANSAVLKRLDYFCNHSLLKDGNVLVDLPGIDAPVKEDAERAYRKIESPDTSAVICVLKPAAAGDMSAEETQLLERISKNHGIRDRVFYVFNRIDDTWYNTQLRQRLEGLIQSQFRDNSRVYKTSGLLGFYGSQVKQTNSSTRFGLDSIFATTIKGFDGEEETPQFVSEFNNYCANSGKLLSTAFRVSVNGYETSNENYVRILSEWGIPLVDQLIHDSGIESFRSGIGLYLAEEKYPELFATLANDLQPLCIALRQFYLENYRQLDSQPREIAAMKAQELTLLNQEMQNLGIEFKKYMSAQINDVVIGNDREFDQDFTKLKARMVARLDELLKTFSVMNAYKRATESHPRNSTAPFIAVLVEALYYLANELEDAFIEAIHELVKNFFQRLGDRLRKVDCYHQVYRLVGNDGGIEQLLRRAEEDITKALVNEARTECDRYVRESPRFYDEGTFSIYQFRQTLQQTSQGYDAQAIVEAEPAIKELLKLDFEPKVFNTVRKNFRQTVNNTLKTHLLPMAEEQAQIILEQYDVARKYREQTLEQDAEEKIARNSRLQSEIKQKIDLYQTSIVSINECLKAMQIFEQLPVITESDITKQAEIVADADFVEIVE

Molecule | Km [5] [µM] | kcat [5] [s⁻¹] | further results
SynDLP_(HPRN-AAAA) (natural protein) | – | – | stoichiometry N [1]: 2; kcat of GTP hydrolysis (continuous, regenerative, coupled GTPase assay, 0.5 µM protein) [2]: 0.283 s⁻¹
Nc1nc2c(ncn2[C@@H]2O[C@H](COP(=O)(O)OP(=O)(O)OP(=O)(O)O)[C@@H](O)[C@H]2O)c(=O)[nH]1 [GTP] | – | – | continuous regenerative coupled GTPase assay (SynDLP): A mutation of a conserved residue in the P-loop (K61A) considerably reduced the GTPase activity
SynDLP, the dynamin-like protein of Synechocystis sp. PCC 6803 (natural protein) | – | – | stoichiometry N [3]: 40 to 50 monomers; kcat of GTP hydrolysis (continuous, regenerative, coupled GTPase assay, 0.5 µM protein) [4]: 0.743 s⁻¹
SynDLP (Synechocystis sp. PCC 6803 substr. Kazusa) (protein, full length, C-terminal His tag (pET303-CT/His), E. coli Rosetta-gami 2 (DE3), calculated 93 kDa; oligomer of ~40-50 monomers in solution; model covers aa 1-793, last 19 residues unresolved) MSKIAPQCQNLREQVNQLIELLRQEPTLRSQQDTSIVETALGKALSPRFEIVFAGAFSAGKSMLINALLERELLYSAEGHATGTECHIEYANANEERVVLTFLSEAEIRQQALILAKYLNVNVGDLNINQPEAVKVVSQYCQKIIAEEGGENKSERAKQANALHLLLIGFEQNRERINTVQNSTYSMDQLNFSSLAEAAGYARRGANSAVLKRLDYFCNHSLLKDGNVLVDLPGIDAPVKEDAERAYRKIESPDTSAVICVLKPAAAGDMSAEETQLLERISKNHGIRDRVFYVFNRIDDTWYNTQLRQRLEGLIQSQFRDNSRVYKTSGLLGFYGSQVKQTNSSTRFGLDSIFATTIKGFDGEEETPQFVSEFNNYCANSGKLLSTAFRVSVNGYETSNENYVRILSEWGIPLVDQLIHDSGIESFRSGIGLYLAEEKYPELFATLANDLQPLCIALRQFYLENYRQLDSQPREIAAMKAQELTLLNQEMQNLGIEFKKYMSAQINDVVIGNDREFDQDFTKLKARMVARLDELLKTFSVMNAYKRATESHPRNSTAPFIAVLVEALYYLANELEDAFIEAIHELVKNFFQRLGDRLRKVDCYHQVYRLVGNDGGIEQLLRRAEEDITKALVNEARTECDRYVRESPRFYDEGTFSIYQFRQTLQQTSQGYDAQAIVEAEPAIKELLKLDFEPKVFNTVRKNFRQTVNNTLKTHLLPMAEEQAQIILEQYDVARKYREQTLEQDAEEKIARNSRLQSEIKQKIDLYQTSIVSINECLKAMQIFEQLPVITESDITKQAEIVADADFVEIVE | 500 ± 40 | 0.743 ± 0.0167 | –
SynDLP (Synechocystis sp. PCC 6803 substr. Kazusa; C777A) (protein, full length, C-terminal His tag (pET303-CT/His), E. coli Rosetta-gami 2 (DE3), calculated 93 kDa; oligomer of ~40-50 monomers in solution; model covers aa 1-793, last 19 residues unresolved) MSKIAPQCQNLREQVNQLIELLRQEPTLRSQQDTSIVETALGKALSPRFEIVFAGAFSAGKSMLINALLERELLYSAEGHATGTECHIEYANANEERVVLTFLSEAEIRQQALILAKYLNVNVGDLNINQPEAVKVVSQYCQKIIAEEGGENKSERAKQANALHLLLIGFEQNRERINTVQNSTYSMDQLNFSSLAEAAGYARRGANSAVLKRLDYFCNHSLLKDGNVLVDLPGIDAPVKEDAERAYRKIESPDTSAVICVLKPAAAGDMSAEETQLLERISKNHGIRDRVFYVFNRIDDTWYNTQLRQRLEGLIQSQFRDNSRVYKTSGLLGFYGSQVKQTNSSTRFGLDSIFATTIKGFDGEEETPQFVSEFNNYCANSGKLLSTAFRVSVNGYETSNENYVRILSEWGIPLVDQLIHDSGIESFRSGIGLYLAEEKYPELFATLANDLQPLCIALRQFYLENYRQLDSQPREIAAMKAQELTLLNQEMQNLGIEFKKYMSAQINDVVIGNDREFDQDFTKLKARMVARLDELLKTFSVMNAYKRATESHPRNSTAPFIAVLVEALYYLANELEDAFIEAIHELVKNFFQRLGDRLRKVDCYHQVYRLVGNDGGIEQLLRRAEEDITKALVNEARTECDRYVRESPRFYDEGTFSIYQFRQTLQQTSQGYDAQAIVEAEPAIKELLKLDFEPKVFNTVRKNFRQTVNNTLKTHLLPMAEEQAQIILEQYDVARKYREQTLEQDAEEKIARNSRLQSEIKQKIDLYQTSIVSINEALKAMQIFEQLPVITESDITKQAEIVADADFVEIVE | 350 ± 40 | 0.462 ± 0.0133 | –
SynDLP (Synechocystis sp. PCC 6803 substr. Kazusa; H552A/N555A/P553A/R554A) (protein, full length, C-terminal His tag (pET303-CT/His), E. coli Rosetta-gami 2 (DE3), calculated 93 kDa; oligomer of ~40-50 monomers in solution; model covers aa 1-793, last 19 residues unresolved) MSKIAPQCQNLREQVNQLIELLRQEPTLRSQQDTSIVETALGKALSPRFEIVFAGAFSAGKSMLINALLERELLYSAEGHATGTECHIEYANANEERVVLTFLSEAEIRQQALILAKYLNVNVGDLNINQPEAVKVVSQYCQKIIAEEGGENKSERAKQANALHLLLIGFEQNRERINTVQNSTYSMDQLNFSSLAEAAGYARRGANSAVLKRLDYFCNHSLLKDGNVLVDLPGIDAPVKEDAERAYRKIESPDTSAVICVLKPAAAGDMSAEETQLLERISKNHGIRDRVFYVFNRIDDTWYNTQLRQRLEGLIQSQFRDNSRVYKTSGLLGFYGSQVKQTNSSTRFGLDSIFATTIKGFDGEEETPQFVSEFNNYCANSGKLLSTAFRVSVNGYETSNENYVRILSEWGIPLVDQLIHDSGIESFRSGIGLYLAEEKYPELFATLANDLQPLCIALRQFYLENYRQLDSQPREIAAMKAQELTLLNQEMQNLGIEFKKYMSAQINDVVIGNDREFDQDFTKLKARMVARLDELLKTFSVMNAYKRATESAAAASTAPFIAVLVEALYYLANELEDAFIEAIHELVKNFFQRLGDRLRKVDCYHQVYRLVGNDGGIEQLLRRAEEDITKALVNEARTECDRYVRESPRFYDEGTFSIYQFRQTLQQTSQGYDAQAIVEAEPAIKELLKLDFEPKVFNTVRKNFRQTVNNTLKTHLLPMAEEQAQIILEQYDVARKYREQTLEQDAEEKIARNSRLQSEIKQKIDLYQTSIVSINECLKAMQIFEQLPVITESDITKQAEIVADADFVEIVE | 330 ± 20 | 0.283 ± 0.00333 | –
